Assay results published in paper PMC2778132.

Molecular target: endogenous αIIbβ3 integrin receptor of activated platelets (human (endogenous in platelets)) (UniProt P08514)

reduction of adhesion of TRAP-activated platelets to fibrinogen-coated wells (1 µM peptide, compared to N-PTB^D66E): 7%
B1: RGDS peptide (peptide)
peptide: RGDS
